Experimental data taken from article PMC11135836.

Test system: T1, RstA (Escherichia coli LF82 (adherent-invasive)?), ORF:9fe818c8
T1 sequence: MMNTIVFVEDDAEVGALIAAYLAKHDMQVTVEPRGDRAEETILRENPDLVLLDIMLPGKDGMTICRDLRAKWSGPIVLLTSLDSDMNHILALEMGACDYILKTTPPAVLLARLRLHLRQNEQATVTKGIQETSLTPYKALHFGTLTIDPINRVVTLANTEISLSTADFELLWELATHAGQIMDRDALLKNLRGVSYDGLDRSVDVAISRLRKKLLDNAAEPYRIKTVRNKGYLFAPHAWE
Experiment: EMSA
Conditions: EMSA: 40 ng PCR fragment, 0-2 uM RstA, 20 uL; 1 mM Tris-HCl pH 7.5, 0.2 mM DTT, 5 mM MgCl2, 10 mM KCl, 10% glycerol, 30 mM acetyl phosphate; 25 C 30 min …

Sequence	binding
CAAGCAAAAGCCTGGTTCCGCCGATTTATCGCTGCGGCAAATAACGCAGCGGGTTTACGGATTTCCCCTTGTAACGAATTTCAAAATGCAAGCGTGTTGAACTGGTTCCGGTGCTACCCATGGTTGCTATTTTTTGCCCCGCCTTCACTTCTTGTTGTTCCCGGACCAGCATTGTGTCGTTATGGGCGTAGG (double strand) [rpoS promoter (negative control)]	no binding
ATGACGAAAGGACTACAGCGAAATATTTTTTATATGCATTATTAGTAAGTTAGCACCATTTGTATGATTTTTTAAAATTGTGCAATAAAAACCAAATGTACAACTTTTCTATCATTTATAAACTTAATAAAACCTTAAGGTTAACATTTTAATATAACGAGTTGCATTTAGTTACATGTTTAACACTTGATTTAAGATTTGTAATGGCTAGATTGAAATCAGATGTAATCCATTAGTTTTATATTTTACCCATTTAGGGCTGATTTATTACTACACACA (double strand) [csgD promoter]	binds
TGCGCAGTTATTCTACCGCTTTGTAAGTAGTAAAATAGTTAACACGATCAAGACTACTATTATTGGTAGCTAAATTTTCCTTAAGTCACAATACGTTATTATCAATGCTGTAATTTATTCAGCGTTTGTACATATCGTTACACGCTGAAACCAACCACTCACGGAAGTCTGCCATTCC (double strand) [asr promoter]	binds
